± gives the standard deviation of the averaged measurements or the uncertainty stated by the source.
Key:
[1] = duplex formation entropy ΔS (Van't Hoff fit of HRM Tm); higher = smaller entropy loss on duplex formation; conditions: temperature for dG: 50 °C, NaCl: 500 mM (unadjusted)
Procedure, shortened: (§1)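 DNA duplexes with phosphodiester or phosphorothioate strands (the latter mixed Rp/Sp) were annealed 1:1 and melted at 1–20 μM, with four replicate samples. Melting was in 1× NNE buffer (500 mM NaCl, pH 7.0) with 1× EvaGreen on a LightCycler96 (37 to 97°C, 0.1°C/s). Enthalpy and entropy come from a linear Van't Hoff regression of 1/Tm (Tm: peak of -dF/dT) against ln(CT/4), and free energy is extrapolated to 50°C. Values are not salt-adjusted, and errors are fit standard deviations.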

[2] = duplex melting temperature (HRM, EvaGreen); higher = more stable duplex
Procedure, shortened: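 Complementary DNA strands (phosphodiester or phosphorothioate, Rp/Sp mixtures) were annealed 1:1 at 25 μM, then diluted to 1–20 μM duplex in NNE buffer (500 mM NaCl, pH 7.0) with 1× EvaGreen. A LightCycler96 read fluorescence (470/514 nm) while heating from 37°C to 97°C at 0.1°C/s. Melting temperature was the peak of the negative dF/dT curve from the instrument software. Four replicates were prepared; those lacking a clear peak were excluded and the rest averaged.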

[3] = duplex formation enthalpy ΔH (Van't Hoff fit of HRM Tm); higher = less exothermic duplex formation; conditions: temperature for dG: 50 °C, NaCl: 500 mM (unadjusted)
Procedure, shortened: as §1

[4] = duplex formation free energy ΔG50 (Van't Hoff fit of HRM Tm); higher = less stable duplex; conditions: temperature for dG: 50 °C, NaCl: 500 mM (unadjusted)
Procedure, shortened: as §1

[5] = backbone: PO-PO (both strands phosphodiester DNA)
[6] = backbone: PS-PO (listed strand fully phosphorothioate, complement phosphodiester)
[7] = backbone: PS-PS (both strands fully phosphorothioate)
[8] = duplex concentration 1 µM, backbone: PS-PS (both strands fully phosphorothioate)
[9] = duplex concentration 2.5 µM, backbone: PO-PO (both strands phosphodiester DNA)
[10] = duplex concentration 2.5 µM, backbone: PS-PS (both strands fully phosphorothioate)
[11] = duplex concentration 5 µM, backbone: PO-PO (both strands phosphodiester DNA)
[12] = duplex concentration 5 µM, backbone: PS-PO (listed strand fully phosphorothioate, complement phosphodiester)
[13] = duplex concentration 5 µM, backbone: PS-PS (both strands fully phosphorothioate)
[14] = duplex concentration 7.5 µM, backbone: PO-PO (both strands phosphodiester DNA)
[15] = duplex concentration 7.5 µM, backbone: PS-PO (listed strand fully phosphorothioate, complement phosphodiester)
[16] = duplex concentration 7.5 µM, backbone: PS-PS (both strands fully phosphorothioate)
[17] = duplex concentration 10 µM, backbone: PO-PO (both strands phosphodiester DNA)
[18] = duplex concentration 10 µM, backbone: PS-PO (listed strand fully phosphorothioate, complement phosphodiester)
[19] = duplex concentration 10 µM, backbone: PS-PS (both strands fully phosphorothioate)
[20] = duplex concentration 15 µM, backbone: PO-PO (both strands phosphodiester DNA)
[21] = duplex concentration 15 µM, backbone: PS-PO (listed strand fully phosphorothioate, complement phosphodiester)
[22] = duplex concentration 15 µM, backbone: PS-PS (both strands fully phosphorothioate)
[23] = duplex concentration 20 µM, backbone: PO-PO (both strands phosphodiester DNA)
[24] = duplex concentration 20 µM, backbone: PS-PO (listed strand fully phosphorothioate, complement phosphodiester)
[25] = duplex concentration 20 µM, backbone: PS-PS (both strands fully phosphorothioate)
[26] = duplex concentration 1 µM, backbone: PS-PO (listed strand fully phosphorothioate, complement phosphodiester)
[27] = duplex concentration 2.5 µM, backbone: PS-PO (listed strand fully phosphorothioate, complement phosphodiester)

Q: For ACTGTATCGCCCTA, which “duplex formation entropy ΔS” value [1, 5] is on record?
A: -181 ± 18 cal/mol/K

Q: What about the “duplex formation entropy ΔS” value [1, 6] of the same sequence?
A: -144 ± 20 cal/mol/K

Q: And the “duplex formation entropy ΔS” value [1, 7]?
A: -97.5 ± 8.7 cal/mol/K

Q: What about the duplex melting temperature [2, 8] of the same sequence?
A: 43.6 ± 0.65 °C

Q: What about the duplex melting temperature [2, 9] of the same sequence?
A: 64.04 ± 0.18 °C

Q: And the duplex melting temperature [2, 10]?
A: 47.26 ± 0.29 °C

Q: And the duplex melting temperature [2, 11]?
A: 65.3 ± 0.12 °C

Q: And the duplex melting temperature [2, 12]?
A: 57.4 ± 0.95 °C

Q: What about the duplex melting temperature [2, 13] of the same sequence?
A: 50.2 ± 0.33 °C

Q: And the duplex melting temperature [2, 14]?
A: 66.7 ± 0.24 °C

Q: And the duplex melting temperature [2, 15]?
A: 60.1 ± 0.84 °C

Q: What about the duplex melting temperature [2, 16] of the same sequence?
A: 51.8 ± 0.45 °C

Q: And the duplex melting temperature [2, 17]?
A: 68.35 ± 0.2 °C

Q: And the duplex melting temperature [2, 18]?
A: 61.56 ± 0.48 °C

Q: What about the duplex melting temperature [2, 19] of the same sequence?
A: 54.55 ± 0.45 °C

Q: What about the duplex melting temperature [2, 20] of the same sequence?
A: 69.55 ± 0.22 °C

Q: What about the duplex melting temperature [2, 21] of the same sequence?
A: 62.93 ± 0.27 °C

Q: What about the duplex melting temperature [2, 22] of the same sequence?
A: 57.15 ± 0.42 °C

Q: What about the duplex melting temperature [2, 23] of the same sequence?
A: 70.51 ± 0.2 °C

Q: And the duplex melting temperature [2, 24]?
A: 63.73 ± 0.26 °C

Q: What about the duplex melting temperature [2, 25] of the same sequence?
A: 59.2 ± 0.59 °C

Q: What about the “duplex formation enthalpy ΔH” value [3, 5] of the same sequence?
A: -70.4 ± 6 kcal/mol

Q: What about the “duplex formation enthalpy ΔH” value [3, 6] of the same sequence?
A: -56.7 ± 6.8 kcal/mol

Q: What about the “duplex formation enthalpy ΔH” value [3, 7] of the same sequence?
A: -40.3 ± 2.8 kcal/mol

Q: And the “duplex formation free energy ΔG50” value [4, 5]?
A: -12 ± 0.31 kcal/mol

Q: What about the “duplex formation free energy ΔG50” value [4, 6] of the same sequence?
A: -10.2 ± 0.24 kcal/mol

Q: And the “duplex formation free energy ΔG50” value [4, 7]?
A: -8.829 ± 0.042 kcal/mol

Q: For CGTGCAGCACTACTTG, which “duplex formation entropy ΔS” value [1, 5] is on record?
A: -181 ± 7.5 cal/mol/K

Q: What about the “duplex formation entropy ΔS” value [1, 6] of the same sequence?
A: -186 ± 5 cal/mol/K

Q: What about the “duplex formation entropy ΔS” value [1, 7] of the same sequence?
A: -179 ± 11 cal/mol/K

Q: And the duplex melting temperature [2, 26]?
A: 56.81 ± 0.29 °C

Q: What about the duplex melting temperature [2, 8] of the same sequence?
A: 50.09 ± 0.18 °C

Q: And the duplex melting temperature [2, 9]?
A: 67.58 ± 0.38 °C

Q: What about the duplex melting temperature [2, 27] of the same sequence?
A: 60.02 ± 0.13 °C

Q: And the duplex melting temperature [2, 10]?
A: 53.82 ± 0.069 °C

Q: And the duplex melting temperature [2, 11]?
A: 69.83 ± 0.28 °C

Q: And the duplex melting temperature [2, 12]?
A: 62.35 ± 0.23 °C

Q: And the duplex melting temperature [2, 13]?
A: 56.17 ± 0.085 °C

Q: And the duplex melting temperature [2, 14]?
A: 71.17 ± 0.15 °C

Q: What about the duplex melting temperature [2, 15] of the same sequence?
A: 63.49 ± 0.13 °C

Q: What about the duplex melting temperature [2, 16] of the same sequence?
A: 57.1 ± 0.12 °C

Q: And the duplex melting temperature [2, 17]?
A: 72.2 ± 0.18 °C

Q: And the duplex melting temperature [2, 18]?
A: 64.33 ± 0.093 °C

Q: And the duplex melting temperature [2, 19]?
A: 57.92 ± 0.08 °C

Q: What about the duplex melting temperature [2, 20] of the same sequence?
A: 73.4 ± 0.13 °C

Q: What about the duplex melting temperature [2, 21] of the same sequence?
A: 65.6 ± 0.099 °C

Q: And the duplex melting temperature [2, 22]?
A: 59.07 ± 0.11 °C

Q: And the duplex melting temperature [2, 23]?
A: 74.39 ± 0.17 °C

Q: And the duplex melting temperature [2, 24]?
A: 66.47 ± 0.25 °C

Q: And the duplex melting temperature [2, 25]?
A: 59.74 ± 0.13 °C

Q: What about the “duplex formation enthalpy ΔH” value [3, 5] of the same sequence?
A: -71.3 ± 2.6 kcal/mol

Q: What about the “duplex formation enthalpy ΔH” value [3, 6] of the same sequence?
A: -71.3 ± 1.7 kcal/mol

Q: What about the “duplex formation enthalpy ΔH” value [3, 7] of the same sequence?
A: -67.6 ± 3.5 kcal/mol

Q: And the “duplex formation free energy ΔG50” value [4, 5]?
A: -12.8 ± 0.17 kcal/mol

Q: And the “duplex formation free energy ΔG50” value [4, 6]?
A: -11.31 ± 0.067 kcal/mol

Q: And the “duplex formation free energy ΔG50” value [4, 7]?
A: -9.892 ± 0.075 kcal/mol

Q: What does the source list for TTGAAAACCCATGTGC?
A: duplex formation entropy ΔS [1, 5]: -177 ± 5 cal/mol/K; duplex formation entropy ΔS [1, 6]: -180 ± 7.1 cal/mol/K; duplex formation entropy ΔS [1, 7]: -189 ± 8.7 cal/mol/K; duplex melting temperature ([2]; duplex concentration 1 µM, backbone: PO-PO (both strands phosphodiester DNA)): 60.23 ± 0.095 °C; duplex melting temperature [2, 8]: 44.39 ± 0.2 °C; duplex melting temperature [2, 9]: 62.8 ± 0.81 °C; duplex melting temperature [2, 27]: 56.79 ± 0.24 °C; duplex melting temperature [2, 10]: 47.54 ± 0.18 °C; duplex melting temperature [2, 11]: 64.91 ± 0.47 °C; duplex melting temperature [2, 12]: 59.35 ± 0.12 °C; duplex melting temperature [2, 13]: 49.47 ± 0.39 °C; duplex melting temperature [2, 14]: 66.29 ± 0.13 °C; duplex melting temperature [2, 15]: 60.57 ± 0.15 °C; duplex melting temperature [2, 16]: 50.5 ± 0.34 °C; duplex melting temperature [2, 17]: 67.33 ± 0.16 °C; duplex melting temperature [2, 18]: 61.45 ± 0.1 °C; duplex melting temperature [2, 19]: 51.45 ± 0.23 °C; duplex melting temperature [2, 20]: 68.7 ± 0.13 °C; duplex melting temperature [2, 21]: 62.67 ± 0.086 °C; duplex melting temperature [2, 22]: 52.45 ± 0.36 °C; duplex melting temperature [2, 23]: 69.66 ± 0.17 °C; duplex melting temperature [2, 24]: 63.58 ± 0.29 °C; duplex melting temperature [2, 25]: 53.33 ± 0.26 °C; duplex formation enthalpy ΔH [3, 5]: -69.1 ± 1.7 kcal/mol; duplex formation enthalpy ΔH [3, 6]: -68.7 ± 2.4 kcal/mol; duplex formation enthalpy ΔH [3, 7]: -69.7 ± 2.8 kcal/mol; duplex formation free energy ΔG50 [4, 5]: -11.8 ± 0.082 kcal/mol; duplex formation free energy ΔG50 [4, 6]: -10.62 ± 0.078 kcal/mol; duplex formation free energy ΔG50 [4, 7]: -8.581 ± 0.024 kcal/mol

Q: Which “duplex formation entropy ΔS” value [1, 5] does the source give for AGCTGAGCCTGCCGCC here?
A: -252 ± 13 cal/mol/K

Q: And the “duplex formation entropy ΔS” value [1, 6]?
A: -174 ± 4.5 cal/mol/K

Q: What about the “duplex formation entropy ΔS” value [1, 7] of the same sequence?
A: -195 ± 4.6 cal/mol/K

Q: And the duplex melting temperature [2, 26]?
A: 65.9 ± 0.78 °C

Q: What about the duplex melting temperature [2, 8] of the same sequence?
A: 61.14 ± 0.19 °C

Q: What about the duplex melting temperature [2, 9] of the same sequence?
A: 77.27 ± 0.16 °C

Q: And the duplex melting temperature [2, 27]?
A: 69.3 ± 0.33 °C

Q: And the duplex melting temperature [2, 10]?
A: 64.02 ± 0.13 °C

Q: And the duplex melting temperature [2, 11]?
A: 78.56 ± 0.24 °C

Q: And the duplex melting temperature [2, 12]?
A: 71.58 ± 0.18 °C

Q: And the duplex melting temperature [2, 13]?
A: 66.05 ± 0.17 °C

Q: And the duplex melting temperature [2, 14]?
A: 79.697 ± 0.042 °C

Q: What about the duplex melting temperature [2, 15] of the same sequence?
A: 72.92 ± 0.22 °C

Q: And the duplex melting temperature [2, 16]?
A: 67.37 ± 0.12 °C

Q: What about the duplex melting temperature [2, 17] of the same sequence?
A: 80.57 ± 0.19 °C

Q: What about the duplex melting temperature [2, 18] of the same sequence?
A: 73.99 ± 0.21 °C

Q: And the duplex melting temperature [2, 19]?
A: 68.22 ± 0.11 °C

Q: And the duplex melting temperature [2, 20]?
A: 81.65 ± 0.17 °C

Q: And the duplex melting temperature [2, 21]?
A: 75.27 ± 0.28 °C

Q: What about the duplex melting temperature [2, 22] of the same sequence?
A: 69.27 ± 0.11 °C

Q: And the duplex melting temperature [2, 23]?
A: 82.38 ± 0.13 °C

Q: And the duplex melting temperature [2, 24]?
A: 76.21 ± 0.3 °C

Q: What about the duplex melting temperature [2, 25] of the same sequence?
A: 70.31 ± 0.28 °C

Q: What about the “duplex formation enthalpy ΔH” value [3, 5] of the same sequence?
A: -98.2 ± 4.6 kcal/mol

Q: And the “duplex formation enthalpy ΔH” value [3, 6]?
A: -69.1 ± 1.6 kcal/mol

Q: And the “duplex formation enthalpy ΔH” value [3, 7]?
A: -75.3 ± 1.6 kcal/mol

Q: And the “duplex formation free energy ΔG50” value [4, 5]?
A: -16.8 ± 0.39 kcal/mol

Q: And the “duplex formation free energy ΔG50” value [4, 6]?
A: -13.04 ± 0.1 kcal/mol

Q: And the “duplex formation free energy ΔG50” value [4, 7]?
A: -12.29 ± 0.078 kcal/mol

Reference: the supplement of paper PMC9116672
